Tested on: Escherichia coli TOP10
Test: shrunken log2 fold change of peptide-encoding DNA abundance (4.5 h post-induction vs induction); higher = less antimicrobial activity (less host growth inhibition)
Settings: time post-induction: 4.5 h; library: site-saturation at positions 5, 18, 19, 20
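Also: peptides expressed intracellularly from a pBAD plasmid library in pooled LB shake-flask culture, induced with 0.3% L-arabinose, DNA abundance read by NGS, three biological replicates, DESeq2 with apeglm shrinkage.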

Row | Sequence | shrunken log2 fold change
1 | RRIRERPPRLPRPRPRPVWCPRP | -0.156
2 | RRIRERPPRLPRPRPRPVWDPRP | 0.00068
3 | RRIRERPPRLPRPRPRPVWIPRP | -0.556
4 | RRIRERPPRLPRPRPRPVWLPRP | -0.0259
5 | RRIRERPPRLPRPRPRPWCLPRP | -0.746
6 | RRIRERPPRLPRPRPRPWDIPRP | -0.0155
7 | RRIRERPPRLPRPRPRPWDSPRP | 0.0192
8 | RRIRERPPRLPRPRPRPWELPRP | -0.238
9 | RRIRERPPRLPRPRPRPWGTPRP | -0.121
10 | RRIRERPPRLPRPRPRPWIVPRP | -0.00567
11 | RRIRERPPRLPRPRPRPWKMPRP | 0.00355
12 | RRIRERPPRLPRPRPRPWKYPRP | -0.0185
13 | RRIRERPPRLPRPRPRPWLMPRP | -0.282
14 | RRIRERPPRLPRPRPRPWMCPRP | -0.11
15 | RRIRERPPRLPRPRPRPWMTPRP | -0.108
16 | RRIRERPPRLPRPRPRPWNFPRP | -0.0838
17 | RRIRERPPRLPRPRPRPWPAPRP | 0.238
18 | RRIRERPPRLPRPRPRPWPGPRP | -0.0345
19 | RRIRERPPRLPRPRPRPWPVPRP | -0.643
20 | RRIRERPPRLPRPRPRPWSDPRP | -0.0787
21 | RRIRERPPRLPRPRPRPWVAPRP | -0.00272
22 | RRIRERPPRLPRPRPRPWVCPRP | 0.0297
23 | RRIRERPPRLPRPRPRPWWCPRP | -0.426
24 | RRIRERPPRLPRPRPRPWWLPRP | -0.183
25 | RRIRERPPRLPRPRPRPWWSPRP | -0.0183

Row | Sequence | shrunken log2 fold change
26 | RRIRERPPRLPRPRPRPYAMPRP | -0.416
27 | RRIRERPPRLPRPRPRPYAPPRP | -0.624
28 | RRIRERPPRLPRPRPRPYEHPRP | -0.278
29 | RRIRERPPRLPRPRPRPYEKPRP | -0.0219
30 | RRIRERPPRLPRPRPRPYESPRP | -0.0018
31 | RRIRERPPRLPRPRPRPYFDPRP | -0.926
32 | RRIRERPPRLPRPRPRPYGAPRP | -0.569
33 | RRIRERPPRLPRPRPRPYGHPRP | -0.136
34 | RRIRERPPRLPRPRPRPYGTPRP | -0.0949
35 | RRIRERPPRLPRPRPRPYIPPRP | -0.416
36 | RRIRERPPRLPRPRPRPYLVPRP | -0.529
37 | RRIRERPPRLPRPRPRPYMSPRP | -0.0135
38 | RRIRERPPRLPRPRPRPYPDPRP | -1.61
39 | RRIRERPPRLPRPRPRPYRFPRP | -0.708
40 | RRIRERPPRLPRPRPRPYRHPRP | -0.0262
41 | RRIRERPPRLPRPRPRPYRTPRP | -1.15
42 | RRIRERPPRLPRPRPRPYSCPRP | 0.0107
43 | RRIRERPPRLPRPRPRPYTFPRP | -0.282
44 | RRIRERPPRLPRPRPRPYTVPRP | -0.74
45 | RRIRERPPRLPRPRPRPYVHPRP | -0.00146
46 | RRIRERPPRLPRPRPRPYVLPRP | -0.125
47 | RRIRERPPRLPRPRPRPYWKPRP | -0.0866
48 | RRIRFRPPRLPRPRPRPAATPRP | 0.372
49 | RRIRFRPPRLPRPRPRPADDPRP | -0.053
50 | RRIRFRPPRLPRPRPRPADFPRP | -0.09

Row | Sequence | shrunken log2 fold change
51 | RRIRFRPPRLPRPRPRPAFTPRP | -0.224
52 | RRIRFRPPRLPRPRPRPAGLPRP | -0.0796
53 | RRIRFRPPRLPRPRPRPAHAPRP | 0.0606
54 | RRIRFRPPRLPRPRPRPAIIPRP | -0.149
55 | RRIRFRPPRLPRPRPRPAIMPRP | -0.225
56 | RRIRFRPPRLPRPRPRPANPPRP | -0.156
57 | RRIRFRPPRLPRPRPRPANTPRP | -0.209
58 | RRIRFRPPRLPRPRPRPANYPRP | -0.43
59 | RRIRFRPPRLPRPRPRPAPHPRP | 0.442
60 | RRIRFRPPRLPRPRPRPAPYPRP | 1.75
61 | RRIRFRPPRLPRPRPRPAQEPRP | 0.351
62 | RRIRFRPPRLPRPRPRPAQTPRP | 0.0962
63 | RRIRFRPPRLPRPRPRPAQVPRP | -0.0516
64 | RRIRFRPPRLPRPRPRPARVPRP | 0.319
65 | RRIRFRPPRLPRPRPRPASCPRP | 0.0375
66 | RRIRFRPPRLPRPRPRPASTPRP | -0.0365
67 | RRIRFRPPRLPRPRPRPATNPRP | -0.213
68 | RRIRFRPPRLPRPRPRPAVIPRP | -0.0689
69 | RRIRFRPPRLPRPRPRPAVMPRP | 0.248
70 | RRIRFRPPRLPRPRPRPAYHPRP | -0.00712
71 | RRIRFRPPRLPRPRPRPCAHPRP | -0.197
72 | RRIRFRPPRLPRPRPRPCAMPRP | -0.561
73 | RRIRFRPPRLPRPRPRPCAYPRP | 2.21
74 | RRIRFRPPRLPRPRPRPCCAPRP | -0.0621
75 | RRIRFRPPRLPRPRPRPCCHPRP | -0.415

Row | Sequence | shrunken log2 fold change
76 | RRIRFRPPRLPRPRPRPCEDPRP | -0.13
77 | RRIRFRPPRLPRPRPRPCEEPRP | 0.178
78 | RRIRFRPPRLPRPRPRPCFNPRP | -0.385
79 | RRIRFRPPRLPRPRPRPCKPPRP | -0.109
80 | RRIRFRPPRLPRPRPRPCLAPRP | -0.245
81 | RRIRFRPPRLPRPRPRPCLEPRP | -0.489
82 | RRIRFRPPRLPRPRPRPCMPPRP | -0.35
83 | RRIRFRPPRLPRPRPRPCNPPRP | -0.0333
84 | RRIRFRPPRLPRPRPRPCPCPRP | -0.21
85 | RRIRFRPPRLPRPRPRPCRWPRP | 0.0901
86 | RRIRFRPPRLPRPRPRPCSRPRP | -0.22
87 | RRIRFRPPRLPRPRPRPCSVPRP | -0.338
88 | RRIRFRPPRLPRPRPRPCTVPRP | -0.318
89 | RRIRFRPPRLPRPRPRPCTYPRP | -0.384
90 | RRIRFRPPRLPRPRPRPCWMPRP | -0.0459
91 | RRIRFRPPRLPRPRPRPCWPPRP | 0.0203
92 | RRIRFRPPRLPRPRPRPCWRPRP | -0.199
93 | RRIRFRPPRLPRPRPRPDAMPRP | 0.138
94 | RRIRFRPPRLPRPRPRPDDKPRP | -0.059
95 | RRIRFRPPRLPRPRPRPDDPPRP | 0.212
96 | RRIRFRPPRLPRPRPRPDELPRP | 0.0112
97 | RRIRFRPPRLPRPRPRPDFMPRP | -0.27
98 | RRIRFRPPRLPRPRPRPDFPPRP | -0.0311
99 | RRIRFRPPRLPRPRPRPDFQPRP | -0.546
100 | RRIRFRPPRLPRPRPRPDFSPRP | -0.259

Row | Sequence | shrunken log2 fold change
101 | RRIRFRPPRLPRPRPRPDFWPRP | 0.0889
102 | RRIRFRPPRLPRPRPRPDHHPRP | -0.452
103 | RRIRFRPPRLPRPRPRPDICPRP | -0.0857
104 | RRIRFRPPRLPRPRPRPDKGPRP | -0.0555
105 | RRIRFRPPRLPRPRPRPDKHPRP | -0.478
106 | RRIRFRPPRLPRPRPRPDLFPRP | 0.0316
107 | RRIRFRPPRLPRPRPRPDLMPRP | -0.114
108 | RRIRFRPPRLPRPRPRPDMVPRP | -0.499
109 | RRIRFRPPRLPRPRPRPDNGPRP | -0.13
110 | RRIRFRPPRLPRPRPRPDNRPRP | -0.0149
111 | RRIRFRPPRLPRPRPRPDNSPRP | -0.726
112 | RRIRFRPPRLPRPRPRPDNYPRP | -0.12
113 | RRIRFRPPRLPRPRPRPDPDPRP | -0.113
114 | RRIRFRPPRLPRPRPRPDPWPRP | 0.0822
115 | RRIRFRPPRLPRPRPRPDQHPRP | -0.34
116 | RRIRFRPPRLPRPRPRPDREPRP | -0.006
117 | RRIRFRPPRLPRPRPRPDSPPRP | -0.168
118 | RRIRFRPPRLPRPRPRPDTNPRP | -0.208
119 | RRIRFRPPRLPRPRPRPDTYPRP | -0.221
120 | RRIRFRPPRLPRPRPRPDVHPRP | -0.179
121 | RRIRFRPPRLPRPRPRPEAMPRP | -0.000462
122 | RRIRFRPPRLPRPRPRPECKPRP | -0.0133
123 | RRIRFRPPRLPRPRPRPEDFPRP | 0.0568
124 | RRIRFRPPRLPRPRPRPEDWPRP | 0.181
125 | RRIRFRPPRLPRPRPRPEEAPRP | 0.253

Row | Sequence | shrunken log2 fold change
126 | RRIRFRPPRLPRPRPRPEESPRP | 0.195
127 | RRIRFRPPRLPRPRPRPEEYPRP | -0.00963
128 | RRIRFRPPRLPRPRPRPEFPPRP | -0.132
129 | RRIRFRPPRLPRPRPRPEGGPRP | 0.586
130 | RRIRFRPPRLPRPRPRPEGQPRP | 0.15
131 | RRIRFRPPRLPRPRPRPEHLPRP | -0.223
132 | RRIRFRPPRLPRPRPRPEHNPRP | -0.489
133 | RRIRFRPPRLPRPRPRPEHPPRP | -0.0569
134 | RRIRFRPPRLPRPRPRPEHVPRP | -0.0205
135 | RRIRFRPPRLPRPRPRPEIQPRP | 0.0158
136 | RRIRFRPPRLPRPRPRPELHPRP | -0.235
137 | RRIRFRPPRLPRPRPRPEMWPRP | -0.0843
138 | RRIRFRPPRLPRPRPRPENEPRP | 0.15
139 | RRIRFRPPRLPRPRPRPENVPRP | -0.0124
140 | RRIRFRPPRLPRPRPRPEPAPRP | 0.669
141 | RRIRFRPPRLPRPRPRPEPMPRP | -0.278
142 | RRIRFRPPRLPRPRPRPEQEPRP | -0.159
143 | RRIRFRPPRLPRPRPRPERCPRP | 0.104
144 | RRIRFRPPRLPRPRPRPERNPRP | -0.184
145 | RRIRFRPPRLPRPRPRPESCPRP | -0.141
146 | RRIRFRPPRLPRPRPRPEVPPRP | -0.0248
147 | RRIRFRPPRLPRPRPRPEWRPRP | 0.531
148 | RRIRFRPPRLPRPRPRPEYSPRP | 5.84e-05
149 | RRIRFRPPRLPRPRPRPFCAPRP | -0.102
150 | RRIRFRPPRLPRPRPRPFCVPRP | -0.722

Source: the supplement of paper PMC9112550, “Optimization of the antimicrobial peptide Bac7 by deep mutational scanning” (BMC Biology, 2022)
